T1: APBA1_1, Q02410
T1 sequence (Q02410 651-752, limits assumed, looked up): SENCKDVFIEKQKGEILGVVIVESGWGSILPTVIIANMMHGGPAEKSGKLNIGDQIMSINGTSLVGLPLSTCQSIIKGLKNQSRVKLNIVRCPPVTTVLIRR

T2: APBA1_2, Q02410
T2 sequence (Q02410 742-832, limits assumed, looked up): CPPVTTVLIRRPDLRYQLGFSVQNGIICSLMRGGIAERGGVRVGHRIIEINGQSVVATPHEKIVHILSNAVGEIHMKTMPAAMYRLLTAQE

T3: APBA3_1, O96018
T3 sequence (O96018 389-490, limits assumed, looked up): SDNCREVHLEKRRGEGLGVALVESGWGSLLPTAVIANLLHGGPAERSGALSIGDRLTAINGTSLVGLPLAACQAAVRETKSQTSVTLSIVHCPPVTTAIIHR

T4: DLG3_1, Q92796
T4 sequence (Q92796 125-227, limits assumed, looked up): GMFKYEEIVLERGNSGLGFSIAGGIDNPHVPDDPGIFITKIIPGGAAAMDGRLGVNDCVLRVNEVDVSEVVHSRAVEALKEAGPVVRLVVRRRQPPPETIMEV

T5: DLG3_2, Q92796
T5 sequence (Q92796 221-321, limits assumed, looked up): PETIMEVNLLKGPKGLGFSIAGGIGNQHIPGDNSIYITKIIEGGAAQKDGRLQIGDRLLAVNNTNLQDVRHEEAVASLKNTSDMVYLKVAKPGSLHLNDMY

T6: GRIP1_2, Q9Y3R0
T6 sequence (Q9Y3R0 145-248, limits assumed, looked up): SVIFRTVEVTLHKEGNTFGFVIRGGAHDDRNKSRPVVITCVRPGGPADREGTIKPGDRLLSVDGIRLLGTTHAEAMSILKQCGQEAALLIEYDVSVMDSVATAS

T7: LNX2_2, Q8N448
T7 sequence (Q8N448 334-432, limits assumed, looked up): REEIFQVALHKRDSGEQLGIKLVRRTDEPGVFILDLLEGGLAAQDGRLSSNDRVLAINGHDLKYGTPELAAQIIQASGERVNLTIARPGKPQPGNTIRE

T8: MPDZ_5, O75970
T8 sequence (O75970 695-796, limits assumed, looked up): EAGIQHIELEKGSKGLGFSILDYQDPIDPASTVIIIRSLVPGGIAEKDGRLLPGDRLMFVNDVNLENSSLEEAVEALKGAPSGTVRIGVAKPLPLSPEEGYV

T9: MPP2, Q14168
T9 sequence (Q14168 180-250, limits assumed, looked up): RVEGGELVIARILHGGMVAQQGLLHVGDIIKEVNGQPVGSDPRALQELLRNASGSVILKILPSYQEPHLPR

T10: RADIL, Q96JH8
T10 sequence (Q96JH8 971-1071, limits assumed, looked up): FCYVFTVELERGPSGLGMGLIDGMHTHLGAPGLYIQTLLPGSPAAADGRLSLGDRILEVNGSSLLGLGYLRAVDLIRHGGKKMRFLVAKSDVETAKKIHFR

T11: SNTB1, Q13884
T11 sequence (Q13884 107-205, limits assumed, looked up): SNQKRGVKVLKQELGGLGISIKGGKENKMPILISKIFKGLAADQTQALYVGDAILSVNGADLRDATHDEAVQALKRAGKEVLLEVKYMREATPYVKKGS

T12: TX1BP3, O14907
T12 sequence (O14907 10-122, limits assumed, looked up): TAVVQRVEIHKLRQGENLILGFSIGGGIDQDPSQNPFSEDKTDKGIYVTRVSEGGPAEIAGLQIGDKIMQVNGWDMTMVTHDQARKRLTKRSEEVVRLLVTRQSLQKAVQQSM


Each binder was assayed against T1, APBA1_1, Q02410 (assay: holdup assay). Conditions: plain residues with an end cap or a label only (N-terminal biotin on a linker: ado-ado).
Parameters: key: below the threshold = too weak to quantify, mostly under pKd 3.1 to 4

pKd | Binder
below the threshold | YAEKRMLTEV [KCNA6, P17658]

The binders below were run against T2, APBA1_2, Q02410 (assay: holdup assay). Conditions: plain residues with an end cap or a label only (N-terminal biotin on a linker: ado-ado).
Parameters: key: below the threshold = too weak to quantify, mostly under pKd 3.1 to 4

pKd | Binder
3.72 | YAEKRMLTEV [KCNA6, P17658]

The binders below were run against T3, APBA3_1, O96018 (assay: holdup assay). Conditions: plain residues with an end cap or a label only (N-terminal biotin on a linker: ado-ado).
Parameters: key: below the threshold = too weak to quantify, mostly under pKd 3.1 to 4

pKd | Binder
below the threshold | YAEKRMLTEV [KCNA6, P17658]

The binders below were run against ARHGEF12, Q9NZN5-2 (assay: holdup assay). Conditions: plain residues with an end cap or a label only (N-terminal biotin on a linker: ado-ado).
Chain of ARHGEF12, Q9NZN5-2 (Q9NZN5 other isoform, or with tags, fused parts or gaps): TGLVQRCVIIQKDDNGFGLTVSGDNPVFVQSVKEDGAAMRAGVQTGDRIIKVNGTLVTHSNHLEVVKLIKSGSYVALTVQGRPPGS
Parameters: key: below the threshold = too weak to quantify, mostly under pKd 3.1 to 4

pKd | Binder
4.91 | YAEKRMLTEV [KCNA6, P17658]

The binders below were run against CASK, O14936 (assay: holdup assay). Conditions: plain residues with an end cap or a label only (N-terminal biotin on a linker: ado-ado).
Chain of CASK, O14936 (O14936 487-570): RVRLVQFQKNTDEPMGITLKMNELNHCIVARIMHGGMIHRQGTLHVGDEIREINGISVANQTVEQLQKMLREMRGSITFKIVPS
Parameters: key: below the threshold = too weak to quantify, mostly under pKd 3.1 to 4

pKd | Binder
below the threshold | YAEKRMLTEV [KCNA6, P17658]

Each binder was assayed against DLG1_2, Q12959 (assay: holdup assay). Conditions: plain residues with an end cap or a label only (N-terminal biotin on a linker: ado-ado).
Chain of DLG1_2, Q12959 (Q12959 314-412): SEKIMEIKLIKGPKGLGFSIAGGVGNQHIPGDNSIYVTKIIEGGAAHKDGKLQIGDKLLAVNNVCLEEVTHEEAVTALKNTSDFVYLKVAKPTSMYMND
Parameters: key: below the threshold = too weak to quantify, mostly under pKd 3.1 to 4

pKd | Binder
4.23 | YAEKRMLTEV [KCNA6, P17658]

The binders below were run against DLG2_2, Q15700 (assay: holdup assay). Conditions: plain residues with an end cap or a label only (N-terminal biotin on a linker: ado-ado).
Chain of DLG2_2, Q15700 (Q15700 189-283): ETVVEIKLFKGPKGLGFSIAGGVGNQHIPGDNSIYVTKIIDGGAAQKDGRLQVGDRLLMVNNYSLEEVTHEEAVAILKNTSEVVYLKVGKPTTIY
Parameters: key: below the threshold = too weak to quantify, mostly under pKd 3.1 to 4

pKd | Binder
4.15 | YAEKRMLTEV [KCNA6, P17658]

What follows are binders tested against T4, DLG3_1, Q92796 (assay: holdup assay). Conditions: plain residues with an end cap or a label only (N-terminal biotin on a linker: ado-ado).
Parameters: key: below the threshold = too weak to quantify, mostly under pKd 3.1 to 4

pKd | Binder
below the threshold | YAEKRMLTEV [KCNA6, P17658]

What follows are binders tested against T5, DLG3_2, Q92796 (assay: holdup assay). Conditions: plain residues with an end cap or a label only (N-terminal biotin on a linker: ado-ado).
Parameters: key: below the threshold = too weak to quantify, mostly under pKd 3.1 to 4

pKd | Binder
4.6 | YAEKRMLTEV [KCNA6, P17658]

Each binder was assayed against DLG4_3, P78352 (assay: holdup assay). Conditions: plain residues with an end cap or a label only (N-terminal biotin on a linker: ado-ado).
Chain of DLG4_3, P78352 (P78352 306-403): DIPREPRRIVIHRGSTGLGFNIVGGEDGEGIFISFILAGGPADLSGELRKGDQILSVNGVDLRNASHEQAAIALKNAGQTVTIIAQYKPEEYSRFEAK
Parameters: key: below the threshold = too weak to quantify, mostly under pKd 3.1 to 4

pKd | Binder
3.74 | YAEKRMLTEV [KCNA6, P17658]

What follows are binders tested against T6, GRIP1_2, Q9Y3R0 (assay: holdup assay). Conditions: plain residues with an end cap or a label only (N-terminal biotin on a linker: ado-ado).
Parameters: key: below the threshold = too weak to quantify, mostly under pKd 3.1 to 4

pKd | Binder
below the threshold | YAEKRMLTEV [KCNA6, P17658]

These binders were tested against Inadl_10, Q8NI35 (assay: holdup assay). Conditions: plain residues with an end cap or a label only (N-terminal biotin on a linker: ado-ado).
Chain of Inadl_10, Q8NI35 (Q8NI35 1673-1763): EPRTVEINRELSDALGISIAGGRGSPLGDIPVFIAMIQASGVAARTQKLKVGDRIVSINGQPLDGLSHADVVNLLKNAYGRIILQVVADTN
Parameters: key: below the threshold = too weak to quantify, mostly under pKd 3.1 to 4

pKd | Binder
below the threshold | YAEKRMLTEV [KCNA6, P17658]

Each binder was assayed against LAP2, Q96RT1 (assay: holdup assay). Conditions: plain residues with an end cap or a label only (N-terminal biotin on a linker: ado-ado).
Chain of LAP2, Q96RT1 (Q96RT1 other isoform, or with tags, fused parts or gaps): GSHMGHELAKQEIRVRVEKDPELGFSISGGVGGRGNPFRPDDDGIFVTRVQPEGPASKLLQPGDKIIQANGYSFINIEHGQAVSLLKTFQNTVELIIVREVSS
Parameters: key: below the threshold = too weak to quantify, mostly under pKd 3.1 to 4

pKd | Binder
below the threshold | YAEKRMLTEV [KCNA6, P17658]

What follows are binders tested against LNX1_2, Q8TBB1 (assay: holdup assay). Conditions: plain residues with an end cap or a label only (N-terminal biotin on a linker: ado-ado).
Chain of LNX1_2, Q8TBB1 (Q8TBB1 371-470): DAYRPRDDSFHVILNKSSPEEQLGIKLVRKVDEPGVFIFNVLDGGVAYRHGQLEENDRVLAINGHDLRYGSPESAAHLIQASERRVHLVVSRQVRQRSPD
Parameters: key: below the threshold = too weak to quantify, mostly under pKd 3.1 to 4

pKd | Binder
3.51 | YAEKRMLTEV [KCNA6, P17658]

Each binder was assayed against T7, LNX2_2, Q8N448 (assay: holdup assay). Conditions: plain residues with an end cap or a label only (N-terminal biotin on a linker: ado-ado).
Parameters: key: below the threshold = too weak to quantify, mostly under pKd 3.1 to 4

pKd | Binder
4.04 | YAEKRMLTEV [KCNA6, P17658]

The binders below were run against MAGI2_4, Q86UL8 (assay: holdup assay). Conditions: plain residues with an end cap or a label only (N-terminal biotin on a linker: ado-ado).
Chain of MAGI2_4, Q86UL8 (Q86UL8 772-865): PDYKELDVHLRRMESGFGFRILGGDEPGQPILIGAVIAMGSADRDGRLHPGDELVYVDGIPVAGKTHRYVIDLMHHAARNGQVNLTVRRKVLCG
Parameters: key: below the threshold = too weak to quantify, mostly under pKd 3.1 to 4

pKd | Binder
4.34 | YAEKRMLTEV [KCNA6, P17658]

The binders below were run against MAGI3_2, Q5TCQ9 (assay: holdup assay). Conditions: plain residues with an end cap or a label only (N-terminal biotin on a linker: ado-ado).
Chain of MAGI3_2, Q5TCQ9 (Q5TCQ9 398-503): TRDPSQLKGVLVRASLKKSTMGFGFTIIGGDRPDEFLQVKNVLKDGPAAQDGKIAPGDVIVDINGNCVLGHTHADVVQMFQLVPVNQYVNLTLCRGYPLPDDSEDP
Parameters: key: below the threshold = too weak to quantify, mostly under pKd 3.1 to 4

pKd | Binder
4.62 | YAEKRMLTEV [KCNA6, P17658]

Each binder was assayed against T8, MPDZ_5, O75970 (assay: holdup assay). Conditions: plain residues with an end cap or a label only (N-terminal biotin on a linker: ado-ado).
Parameters: key: below the threshold = too weak to quantify, mostly under pKd 3.1 to 4

pKd | Binder
below the threshold | YAEKRMLTEV [KCNA6, P17658]

Each binder was assayed against T9, MPP2, Q14168 (assay: holdup assay). Conditions: plain residues with an end cap or a label only (N-terminal biotin on a linker: ado-ado).
Parameters: key: below the threshold = too weak to quantify, mostly under pKd 3.1 to 4

pKd | Binder
below the threshold | YAEKRMLTEV [KCNA6, P17658]

Each binder was assayed against PDZRN4_1, Q6ZMN7 (assay: holdup assay). Conditions: plain residues with an end cap or a label only (N-terminal biotin on a linker: ado-ado).
Chain of PDZRN4_1, Q6ZMN7 (Q6ZMN7 213-318): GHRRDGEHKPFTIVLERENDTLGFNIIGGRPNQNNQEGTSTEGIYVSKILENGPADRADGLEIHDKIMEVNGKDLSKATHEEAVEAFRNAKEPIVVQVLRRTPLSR
Parameters: key: below the threshold = too weak to quantify, mostly under pKd 3.1 to 4

pKd | Binder
below the threshold | YAEKRMLTEV [KCNA6, P17658]

These binders were tested against PICK1, Q9NRD5 (assay: holdup assay). Conditions: plain residues with an end cap or a label only (N-terminal biotin on a linker: ado-ado).
Chain of PICK1, Q9NRD5 (Q9NRD5 17-115): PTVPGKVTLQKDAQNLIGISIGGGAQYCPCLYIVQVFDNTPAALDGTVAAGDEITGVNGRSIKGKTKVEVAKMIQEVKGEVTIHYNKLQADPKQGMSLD
Parameters: key: below the threshold = too weak to quantify, mostly under pKd 3.1 to 4

pKd | Binder
below the threshold | YAEKRMLTEV [KCNA6, P17658]

The binders below were run against T10, RADIL, Q96JH8 (assay: holdup assay). Conditions: plain residues with an end cap or a label only (N-terminal biotin on a linker: ado-ado).
Parameters: key: below the threshold = too weak to quantify, mostly under pKd 3.1 to 4

pKd | Binder
3.97 | YAEKRMLTEV [KCNA6, P17658]

These binders were tested against T11, SNTB1, Q13884 (assay: holdup assay). Conditions: plain residues with an end cap or a label only (N-terminal biotin on a linker: ado-ado).
Parameters: key: below the threshold = too weak to quantify, mostly under pKd 3.1 to 4

pKd | Binder
below the threshold | YAEKRMLTEV [KCNA6, P17658]

The binders below were run against TJP1_2, Q07157 (assay: holdup assay). Conditions: plain residues with an end cap or a label only (N-terminal biotin on a linker: ado-ado).
Chain of TJP1_2, Q07157 (Q07157 181-274): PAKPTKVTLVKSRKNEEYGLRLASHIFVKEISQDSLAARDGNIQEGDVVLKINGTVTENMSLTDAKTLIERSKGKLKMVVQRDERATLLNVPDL
Parameters: key: below the threshold = too weak to quantify, mostly under pKd 3.1 to 4

pKd | Binder
below the threshold | YAEKRMLTEV [KCNA6, P17658]

These binders were tested against TJP2_1, Q9UDY2 (assay: holdup assay). Conditions: plain residues with an end cap or a label only (N-terminal biotin on a linker: ado-ado).
Chain of TJP2_1, Q9UDY2 (Q9UDY2 24-128): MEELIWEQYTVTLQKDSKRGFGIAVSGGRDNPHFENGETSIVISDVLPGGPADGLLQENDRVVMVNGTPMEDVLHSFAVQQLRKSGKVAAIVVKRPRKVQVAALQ
Parameters: key: below the threshold = too weak to quantify, mostly under pKd 3.1 to 4

pKd | Binder
below the threshold | YAEKRMLTEV [KCNA6, P17658]

What follows are binders tested against T12, TX1BP3, O14907 (assay: holdup assay). Conditions: plain residues with an end cap or a label only (N-terminal biotin on a linker: ado-ado).
Parameters: key: below the threshold = too weak to quantify, mostly under pKd 3.1 to 4

pKd | Binder
4.29 | YAEKRMLTEV [KCNA6, P17658]

Reference: article PMC9482650, “Quantitative fragmentomics allow affinity mapping of interactomes” (Nature Communications, 2022)
